Measured values reported in patent US20130121989.
Numbering of substitutions follows the chain as printed.

T1: Tetrahymena α-tubulin with non-acetylated K40, from the MEC17-KO strain (as axonemes or as purified tubulin), P41351
T1 chain: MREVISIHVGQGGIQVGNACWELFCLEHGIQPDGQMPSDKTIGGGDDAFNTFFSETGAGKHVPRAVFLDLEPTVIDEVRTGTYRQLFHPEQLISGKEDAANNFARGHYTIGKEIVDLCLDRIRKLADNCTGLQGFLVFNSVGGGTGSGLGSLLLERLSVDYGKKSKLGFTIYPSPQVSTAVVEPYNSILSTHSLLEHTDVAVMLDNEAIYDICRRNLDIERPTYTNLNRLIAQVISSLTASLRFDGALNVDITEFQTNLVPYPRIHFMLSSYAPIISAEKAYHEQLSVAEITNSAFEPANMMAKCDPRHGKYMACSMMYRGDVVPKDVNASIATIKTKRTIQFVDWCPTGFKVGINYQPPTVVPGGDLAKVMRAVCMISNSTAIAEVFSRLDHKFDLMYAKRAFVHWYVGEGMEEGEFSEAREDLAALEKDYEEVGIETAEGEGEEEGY

T2: Tetrahymena K40R α-tubulin (axonemes from a K40R Tetrahymena mutant), P41351
T2 chain: T1 chain with K40R

B1: GFP-Mec17p (Tetrahymena MEC-17 tagged with GFP, crude enriched soluble fraction from transgenic Tetrahymena) (protein)
chain: MFKNQLLSLSLRIQKLRLCRQGNQLKVLQKSINQLLFKTQSIDQILQYLQQKKKTHQSILENQNQHIHSIGLVSQLTNQKINKQKNQKAMEFNFIINKLVQLDQQGLGVYIPRASRSKVSSQQEQQLGQVLNTMGERSAIAQGLKQVITNYDKVQGTDQRVYIVAEGRTCQGFLKVGQKNLFYRDMMGNIKEIKPLCVLDFYVHESCQRQGYGKLLFEYMIQCEQTSPEKLAYDRPSPKLIAFLKKHYNLVKYIAQNNNFVVFDQYFRSDASSQNKQNQNTRSYSQPYSDYSSQIPTNYPQQQQQQSNSKSYPYKQENNIDLMQHSSSRNNKEFLNAGRAILSKEEIYKKDNLSQQNIENTLNNINNSQYSTKSQQQQQYQKDYQLDKYENNWGADKNIKKPPFPGQDRQLDKIQQKIQQTERELDVVNQQIIKQRQNLSQDPLTQNHRAQNVYNTNQFGTSPWAQTGFNYYSTSSSNYGNHYTYYKK
B2: GST-MmMEC-17 (recombinant murine MEC-17 expressed in E. coli as a GST fusion) (protein)
chain: MEFPFDVDALFPERITVLDQHLRPPARRPGTTTPARVDLQQQIMTIVDELGKASAKAQHLPAPITSALRMQSNRHVIYILKDTSARPAGKGAIIGFLKVGYKKLFVLDDREAHNEVEPLCILDFYIHESVQRHGHGRELFQHMLQKERVEPHQLAIDRPSPKLLKFLNKHYNLETTVPQVNNFVIFEGFFAHQHRPPTSSLRATRHSRAAVADPIPAAPARKLPPKRAEGDIKPYSSSDREFLKVAVEPPWPLNRAPRRATPPAHPPPRSSSLGNSPDRGPLRPFVPEQELLRSLRLCPPHPTARLLLATDPGGSPAQRRRTRGTPWGLVAQSCHYSRHGGFNTSFLGTGNQERKQGEQEAEDRSASEDRVLLLDGSGEEPTQTGAPRAQAPPPQSWTVGGDIMNARVIRNLQERRSTRPW

Tests used:
[1] = target: T1, Tetrahymena α-tubulin with …
[2] = target: T2, Tetrahymena K40R α-tubulin (axonemes …)

Protein	in vitro tubulin acetylation (K40 αTAT) assay on MEC17-KO axonemes, western blot with 6-11 B-1 mAb [1]	in vitro acetylation of K40 axonemes, western blot with pan acetyl-K antibodies [1]	in vitro tubulin acetylation (αTAT) assay on MEC17-KO axonemes with acetyl-CoA, western blot with 6-11 B-1 mAb [1]	in vitro acetylation of R40 (K40R) axonemes, western blot with pan acetyl-K antibodies [2]
B1	A crude GFP-Mec17p-enriched fraction (obtained from transgenic Tetrahymena) had K40 αTAT activity in vitro that was dependent on the presence of acetyl-CoA			
B2		GST-MmMEC-17 modified K40 axonemes	GST-MmMEC-17, but not GST, mediated a robust αTAT activity in vitro	failed to acetylate R40 axonemes
